Laboratory results as given in patent US20200040059A1.
Values belong to the substance of their own block, whether it stands above or below them.

What was measured:
[1] = molecular target: human PD-L1, full-length, expressed on transfected Expi293 cells (human) (UniProt Q9NZQ7); assay: flow cytometry on PD-L1-expressing Expi293 cells
[2] = molecular target: human CD28, full-length, expressed on transfected Expi293 cells (human) (UniProt P10747); assay: flow cytometry on CD28-expressing Expi293 cells
[3] = molecular target: PD-1 (Homo sapiens (Human)) (UniProt Q15116); assay: flow cytometry, cells expressing PD-1
[4] = molecular target: CD80 (Homo sapiens (Human)) (UniProt P33681); assay: flow cytometry, cells expressing CD80
[5] = molecular target: human PD-L1, full length, on transfected HEK293 cells (human) (UniProt Q9NZQ7); assay: flow cytometry, Fc fusion at 22.2 nM on HEK293 cells transfected with PD-L1
human PD-L1, full length, on transfected HEK293 cells (human), sequence (Q9NZQ7 19-290 limits assumed): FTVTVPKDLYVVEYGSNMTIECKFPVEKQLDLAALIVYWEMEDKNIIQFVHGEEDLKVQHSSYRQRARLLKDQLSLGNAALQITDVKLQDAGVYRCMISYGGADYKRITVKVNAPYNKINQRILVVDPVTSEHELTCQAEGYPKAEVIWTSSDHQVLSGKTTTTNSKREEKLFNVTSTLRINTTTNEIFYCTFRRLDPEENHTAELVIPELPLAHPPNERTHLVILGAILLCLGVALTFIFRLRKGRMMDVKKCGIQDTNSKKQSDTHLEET

[6] = molecular target: human CTLA4, full length, on transfected HEK293 cells (human) (UniProt P16410); assay: flow cytometry, Fc fusion at 66.6 nM on HEK293 cells transfected with CTLA4
human CTLA4, full length, on transfected HEK293 cells (human), sequence (P16410 36-223 limits assumed): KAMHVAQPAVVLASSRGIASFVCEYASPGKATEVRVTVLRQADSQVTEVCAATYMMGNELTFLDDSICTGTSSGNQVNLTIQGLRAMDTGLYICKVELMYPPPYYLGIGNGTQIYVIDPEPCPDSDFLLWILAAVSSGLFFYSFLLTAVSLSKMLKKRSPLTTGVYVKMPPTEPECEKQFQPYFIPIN

[7] = molecular target: human CD28, full length, on transfected HEK293 cells (human) (UniProt P10747); assay: flow cytometry, Fc fusion at 66.6 nM on HEK293 cells transfected with CD28
CTLA4 (human) = CTLA4 (human) (UniProt P16410); assay: flow cytometry on HEK293 cells transfected with CTLA4
CTLA4 (human), sequence (P16410 36-223 limits assumed): as above

CD28 (human) = CD28 (human) (UniProt P10747); assay: flow cytometry on HEK293 cells transfected with CD28
PD-L1 (human) = PD-L1 (human) (UniProt Q9NZQ7); assay: flow cytometry on HEK293 cells transfected with PD-L1
PD-L1 (human), sequence (Q9NZQ7 19-290 limits assumed): as the sequence (Q9NZQ7 19-290 limits assumed) above

[8] = molecular target: human CTLA-4, full-length, expressed on transfected Expi293 cells (human) (UniProt P16410); assay: flow cytometry on CTLA-4-expressing Expi293 cells
human CTLA-4, full-length, expressed on transfected Expi293 cells (human), sequence (P16410 36-223 limits assumed): as the sequence (P16410 36-223 limits assumed) above

human PD-L1, full-length, expressed on transfected Expi293 cells (human), sequence (Q9NZQ7 19-290 limits assumed): as the sequence (Q9NZQ7 19-290 limits assumed) above

MFI [1]: 9 MFI
MFI [2]: 39 MFI
Substance: CD80 variant A91G/S103P ECD-Fc fusion (from UniProt P33681 35-242)

MFI at 20 nM [3]: 59
MFI at 20 nM [4]: 200000
Substance: CTLA4-Fc (Fc fusion)

MFI at 20 nM [3]: 190
MFI at 20 nM [4]: 155
Substance: variant PD-L1 ECD-Fc L35P, I36S, M97L, K111E (from UniProt Q9NZQ7 19-238) (Fc fusion)

MFI at 22.2 nM [5]: 1450 MFI
MFI at 66.6 nM [6]: 85100 MFI
Substance: CD80 variant IgV-Fc Q27H/E35G/A71D/L72P/T79I (from UniProt P33681 35-141) (Fc fusion)

MFI at 66.6 nM [7]: 1500 MFI
MFI at 22.2 nM [5]: 1850 MFI
MFI at 66.6 nM [6]: 2970 MFI
Substance: CD80 variant IgV-Fc V22L/E35D/M43L/A71G/D76H (from UniProt P33681 35-141) (Fc fusion)

MFI at 66.6 nM [7]: 2270 MFI
MFI at 22.2 nM [5]: 55500 MFI
MFI at 66.6 nM [6]: 40300 MFI
Substance: CD80 variant IgV-Fc A26E/E35D/M47L/L85Q (from UniProt P33681 35-141) (Fc fusion)

MFI at 66.6 nM (CTLA4 (human)): 394000 MFI
MFI at 66.6 nM (CD28 (human)): 23600 MFI
MFI at 22.2 nM (PD-L1 (human)): 3380 MFI
Substance: CD80 IgV-Fc T57I (from UniProt P33681 35-141) (Fc fusion)

MFI at 66.6 nM [7]: 5480 MFI
MFI at 66.6 nM [6]: 59000 MFI
Substance: CD80 variant IgV-Fc E23G/A26S/E35D/T62N/A71D/L72V/L85M (from UniProt P33681 35-141) (Fc fusion)

MFI at 66.6 nM (CTLA4 (human)): 220000 MFI
MFI at 66.6 nM (CD28 (human)): 16800 MFI
MFI at 22.2 nM (PD-L1 (human)): 29600 MFI
Substance: CD80 IgV-Fc A71D (from UniProt P33681 35-141) (Fc fusion)

MFI [1]: 1120 MFI
MFI parental ratio (ratio to WT CD80 ECD-Fc) [1]: 0.06
MFI [2]: 1070 MFI
MFI parental ratio (ratio to WT CD80 ECD-Fc) [2]: 0.08
MFI [8]: 1020 MFI
MFI parental ratio (ratio to WT CD80 ECD-Fc) [8]: 0.02
Substance: CD80 variant E24G/R29D/Y31L/Q33H/K36G/M38I/T41A/M43R/M47T/F59L/E81V/L85R/K89N/A91T/F92P/K93V/R94L/H96R ECD-Fc fusion

MFI at 20 nM [3]: 120
MFI at 20 nM [4]: 128
Substance: variant PD-L1 ECD-Fc I36T, M97L, A103V, Q155H (from UniProt Q9NZQ7 19-238) (Fc fusion)

MFI at 66.6 nM (CTLA4 (human)): 8840 MFI
MFI at 66.6 nM (CD28 (human)): 2740 MFI
MFI at 22.2 nM (PD-L1 (human)): 6310 MFI
Substance: CD80 IgV-Fc S44P/A71D (from UniProt P33681 35-141) (Fc fusion)

MFI at 20 nM [3]: 59
MFI at 20 nM [4]: 132
Substance: Fc Control

MFI [1]: 6 MFI
MFI [2]: 20 MFI
MFI [8]: 74 MFI
Substance: CD80 variant K37E/F59S/L70Q/A91G/T120S/T130A ECD-Fc fusion (from UniProt P33681 35-242)

MFI at 66.6 nM (CTLA4 (human)): 105000 MFI
MFI at 66.6 nM (CD28 (human)): 7340 MFI
MFI at 22.2 nM (PD-L1 (human)): 97700 MFI
Substance: CD80 IgV-Fc M47I/E88D (from UniProt P33681 35-141) (Fc fusion)

MFI [8]: 148 MFI
Substance: CD80 variant K89E/T130A ECD-Fc fusion (from UniProt P33681 35-242)

MFI at 22.2 nM [5]: 3550 MFI
MFI at 66.6 nM [6]: 60300 MFI
Substance: CD80 variant IgV-Fc V20I/A71D (from UniProt P33681 35-141) (Fc fusion)

MFI at 66.6 nM (CD28 (human)): 21300 MFI
MFI at 22.2 nM (PD-L1 (human)): 2420 MFI
Substance: CD80 IgV-Fc E35D/T57I/L70Q/A71D (from UniProt P33681 35-141) (Fc fusion)

MFI at 66.6 nM [7]: 5410 MFI
MFI at 22.2 nM [5]: 9510 MFI
MFI at 66.6 nM [6]: 83100 MFI
Substance: CD80 variant IgV-Fc A26P/E35D/M43I/L85Q/E88D (from UniProt P33681 35-141) (Fc fusion)

MFI [1]: 6 MFI
MFI [8]: 245 MFI
Substance: CD80 variant E52G/L70Q/A91G/T120S/T130A ECD-Fc fusion (from UniProt P33681 35-242)

MFI at 66.6 nM [7]: 4900 MFI
MFI at 22.2 nM [5]: 19500 MFI
MFI at 66.6 nM [6]: 59800 MFI
Substance: CD80 variant IgV-Fc T41S/T57I/L70R (from UniProt P33681 35-141) (Fc fusion)

MFI at 66.6 nM (CTLA4 (human)): 207000 MFI
MFI at 66.6 nM (CD28 (human)): 14600 MFI
MFI at 22.2 nM (PD-L1 (human)): 146000 MFI
Substance: CD80 IgV-Fc M47V/N48H (from UniProt P33681 35-141) (Fc fusion)

MFI at 66.6 nM [7]: 7510 MFI
MFI at 22.2 nM [5]: 38100 MFI
MFI at 66.6 nM [6]: 86000 MFI
Substance: CD80 variant IgV-Fc E35D/D46V/L85Q (from UniProt P33681 35-141) (Fc fusion)

MFI at 20 nM [3]: 830
MFI at 20 nM [4]: 693
Substance: variant PD-L1 ECD-Fc K28I, S99G (Fc fusion)
